In patent US20100086540A1:

Assays:
[1] = target: soluble extracellular domain of EGFR (sEGFR) (UniProt P00533); test: SPR competition: Fab11F8 added to 600 nM sEGFR, passed over immobilized EGF
[2] = target: soluble extracellular domain of EGFR (sEGFR) (UniProt P00533); test: SPR (BIAcore 3000), sEGFR passed over immobilized Fab11F8, equilibrium response, one-site Langmuir fit
[3] = target: isolated domain III of sEGFR (sEGFRd3) (UniProt P00533); test: SPR (BIAcore 3000), sEGFRd3 passed over immobilized Fab11F8, equilibrium analysis

Chain of antibody 11F8 Fab fragment (VH): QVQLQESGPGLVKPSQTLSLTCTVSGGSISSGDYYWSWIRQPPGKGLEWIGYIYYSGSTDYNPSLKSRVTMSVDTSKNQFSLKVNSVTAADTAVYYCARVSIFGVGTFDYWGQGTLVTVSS
Chain of antibody 11F8 Fab fragment (VL): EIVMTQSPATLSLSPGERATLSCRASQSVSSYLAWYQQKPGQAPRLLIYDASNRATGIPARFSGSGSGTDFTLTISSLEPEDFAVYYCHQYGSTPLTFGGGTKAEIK

antibody 11F8 Fab fragment
IC50 [1]: 100 nM
Kd [2]: 3.3 nM
Kd [3]: 1 nM
